From US20110229463A1 (SYMPHOGEN A S, published 2011)
Changes are numbered by the printed parent chain.

B1: Fab fragment of antibody 992 (Fab, V domains shown, not shown: small tags and cut ends)
VH: EVQLQQPGSELVRPGASVKLSCKASGYTFTSYWMHWVKQRPGQGLEWIGNIYPGSRSTNYDEKFKSKATLTVDTSSSTAYMQLSSLTSEDSAVYYCTRNGDYYVSSGDAMDYWGQGTSVTVS
VL: DIQMTQTTSSLSASLGDRVTISCRTSQDIGNYLNWYQQKPDGTVKLLIYYTSRLHSGVPSRFSGSGSGTDFSLTINNVEQEDVATYFCQHYNTVPPTFGGGTKLEIKR
B2: Fab fragment of antibody 1030 (Fab, V domains shown, not shown: small tags and cut ends)
VH: EVQLVESGGGLVKPGGSLKLSCAASGFTFSSYALSWVRQTPERRLEWVASISGVGSTYFPDSVKGRFTMSRDNARNILYLQMSSLRSEDTAMYYCARGSDGYFYAMDYWGQGTSVTVS
VL: DIVLTQSPASLAVSLGQRATISCRASKSVSTSGYSFMHWYQLKPGQPPKLLIYLASNLESGVPARFSGSGSGTDFTLNIHPVEEEDAATYYCQHSREFPLTFGGGTKLEIKR
B3: Fab fragment of antibody 1024 (Fab, V domains shown, not shown: small tags and cut ends)
VH: QVQLQQPGAELVEPGGSVKLSCKASGYTFTSHWMHWVKQRPGQGLEWIGEINPSSGRNNYNEKFKSKATLTVDKSSSTAYMQFSSLTSEDSAVYYCVRYYGYDEAMDYWGQGTSVTVS
VL: DIVMTQAAFSNPVTLGTSASISCRSSKSLLHSNGITYLYWYLQKPGQSPQLLIYQMSNLASGVPDRFSSSGSGTDFTLRISRVEAEDVGVYYCAQNLELPYTFGGGTKLEIKR
B4: antibody 1347 (antibody, human IgG1, kappa, V domains shown)
VH: QVQLKESGPGLVAPSQSLSITCTVSGFSLTGHGVNWVRQPPGKGLEWLGMIWGDGSTDYNSTLKSRLSISKDNSKSQVFLKMNSLQTDDTARYYCARGYGYLYYFDYWGQGTTLTVSS
VL: ENVLTQSPAIMSASPGEKVTMTCRASSSVSSSYLHWYQQKSGASPKLWIYSTSNLASGVPARFSGSGSGTSYSLTVNSVETEDAATYYCHQYSGFPFTFGSGTKLELKR
notes: Chimeric mouse/human IgG1 kappa
B5: antibody 992 (antibody, human IgG1, kappa, V domains shown)
VH: EVQLQQPGSELVRPGASVKLSCKASGYTFTSYWMHWVKQRPGQGLEWIGNIYPGSRSTNYDEKFKSKATLTVDTSSSTAYMQLSSLTSEDSAVYYCTRNGDYYVSSGDAMDYWGQGTSVTVSS
VL: B1 VL
notes: Chimeric mouse variable / human IgG1 kappa; the light chain entry includes the human kappa constant region; the end of the range is counted on the printed entry
B6: antibody 1030 (antibody, human IgG1, kappa, V domains shown)
VH: EVQLVESGGGLVKPGGSLKLSCAASGFTFSSYALSWVRQTPERRLEWVASISGVGSTYFPDSVKGRFTMSRDNARNILYLQMSSLRSEDTAMYYCARGSDGYFYAMDYWGQGTSVTVSS
VL: B2 VL
notes: as for B4
B7: antibody 1024 (antibody, human IgG1, kappa, V domains shown)
VH: QVQLQQPGAELVEPGGSVKLSCKASGYTFTSHWMHWVKQRPGQGLEWIGEINPSSGRNNYNEKFKSKATLTVDKSSSTAYMQFSSLTSEDSAVYYCVRYYGYDEAMDYWGQGTSVTVSS
VL: B3 VL
notes: as for B4
B8: antibody 1261 (antibody, human IgG1, kappa, V domains shown)
VH: EVQLVESGGGLVKPGGSLKLSCAVSGFTFSSYVMSWVRQTPEKRLEWVATITSGGRNIYYLDSVKGRFTISRDNAKNTLYLQMSSLRSEDTAMYYCARHEDYRYDGYYAMDYWGQGTSVTVSS
VL: QIVLTQSPAIMSASPGEKVTITCSASSSVSYMHWFQQKPGTSPKLWIYSTSNLASGVPARFSGSGSGTSYSLTISRMEAEDAATYYCQQRSSYPYTFGGGTKLELKR
notes: as for B4
B9: antibody 1284 (antibody, human IgG1, kappa, V domains shown)
VH: QVQLQQPGAELVKPGASVKLSCKASGYTFTSDWMHWMKQRPGQGLEWIGEINPSNGRSSYNEKFKSKATLTVDKSSSTAYMQLSSLTSEDSAVYYCARIGGIYVETYWGQGTLVTVSS
VL: DIVLTQSPASLAVSLGQRATISCRASQSVSTSTYSYMHWYQQKSGQPPKLLIKYASNLESGVPARFSGSGSGTDFTLNIHPVEEEDTATYYCQHSWEIPWTFGGGTKLEIKR
notes: as for B4
B10: antibody 1254 (antibody, human IgG1, kappa, V domains shown)
VH: EVQLVESGGGLVKPGGSLKLSCAASGFAYSTYDMSWVRQTPEKRLEWVAYISSGGDAAYYPDTVKGRFTISRDNAKNTLYLQMSSLKSEDTAMYYCARSRYGNYGDAMDYWGQGTSVTVSS
VL: DVVMTQTPLSLPVSLGDQASISCRSSQSLVHSNGNTYLHWYLQKPGQSPKLLLYKVSNRFSGVPDRFSGSGSGTDFTLKISRVESEDLGVYFCSQNTHVYTFGGGTKLEIKR
notes: Chimeric mouse/human IgG1 kappa; also called mAb 1254
B11: antibody 1260 (antibody, human IgG1, kappa, V domains shown)
VH: QVQLKESGPGLVAPSQSLSITCTVSGFSLTTYGVHWVRQPPGKGLEWLGVIWAGGSTNYNSALMSRLSIKKDNSKSQVFLKMNSLQTDDTAMYYCARAYGYNFDYWGQGTTLTVSS
VL: DIQMTQTTSSLSASLGDRVTISCSASQGITNYLNWYQQKPDGTVKLLIYYSSSLHSGVPSRFSGSGSGTDYSLTISNLEPEDIATYYCQQYSEIPYTFGGGTKLELKR
notes: as for B4
B12: antibody 1320 (antibody, human IgG1, kappa, V domains shown)
VH: QVQLQQPGAELVKPGASMKLSCKASGYTFTNYWMHWVKQRPGQGLEWIGEINPSNGRTNYNEKFKSKATLTVDKSSSTAYMQLSSLTSEDSGVYYCAKGGNYYDYDWDYWGQGTTLTVSS
VL: B11 VL with G28D, T30S, Y50H, S51T, S53T, E93K, I94L, Y96W, L106I
notes: as for B4

The binders below were run against T1, EGFR-Fc (recombinant EGFR ECD-Fc chimera, R&D Systems 344-ER) (human, UniProt P00533 25-645) (assay: SPR (Biacore 2000): EGFR ECD-Fc immobilised on CM5, Fab injected).
T1 construct: Bought; also called immobilized Human EGFR ECD; not shown: Human IgG Fc
Experimental: To investigate possible differences in antigen presentation between EGFR ECD presented in soluble and immobilized form, a new affinity measurement on an immobilized chimeric EGFR receptor antigen termed EGFR-Fc (R&D Systems, 344-ER), consisting of Human EGFR ECD fused to Human IgG Fc was performed.

t1/2 | Binder
0.2 min | B1
57.5 min | B2
2.3 min | B3

What follows are binders tested against T2, recombinant human EGFR extracellular domain with 6xHis (human, UniProt P00533 25-645) (assay: SPR; EGFR ECD saturated with mix N=6: 1261+1347+992+1024+1030+1361).
T2 construct: In-house protein; also called 6xHis EGFR ECD; soluble human EGFR ECD; not shown: 6xHis tag
Experimental: SPR analysis was performed on a Biacore 3000 machine containing four flow cells. A CM5 Biacore chip was conjugated with 10,000 Resonance units (Ru) polyclonal anti-His antibody to flow cells 1-4 according to the manufacturer's instructions. […] Immediately after antigen injection the maximal binding of the Anti-EGFR mAb without competition was established in each flow cell during a reference run. Briefly 5 μl antibody at a concentration of 40 μg/ml was injected over all flow cells with captured EGFR followed by stripping of the antibody/antigen complex with a low pH acid wash (10 sec. contact time with 10 mM Glycine-HCl, pH2). After the determination of Anti-EGFR antibody maximal binding to each flow cell, a competition run was performed during the same Biacore cycle. Flow cells were first saturated with EGFR ECD antigen followed by injection of different reference antibodies or Anti-EGFR antibodies into separate flow cells using the same antigen saturating conditions as outlined above. This step was immediately followed by a second injection of Anti-EGFR antibody over the flow cell saturated with EGFR antigen and competition antibody to minimize the dissociation of either antigen or blocking antibody. Then the antibody/antigen complexes were stripped off with a low pH acid wash (10 sec. contact time with 10 mM Glycine-HCl, pH 2) and the whole cycle beginning with the reference run was repeated with a new Anti-EGFR antibody. The degree of inhibition of tested Anti-EGFR antibodies were determined by comparing the Ru max value of the individual Anti-EGFR antibody before and after competition by introduction of report points recorded two seconds before and after injection of each sample.

Inhibition Sample mAb | Binder
80% | B4
116% | B5
87% | B6
113% | B7
95% | B8

Each binder was assayed against T2, recombinant human EGFR extracellular … (assay: SPR (BIAcore 2000): IgG captured by anti-human Fc, soluble EGFR ECD injected).
Experimental: Kinetic analysis of the full length IgG antibodies of the invention was performed on a BIAcore 2000, employing an assay as described in (Canziani, Klakamp, et al. 2004, Anal. Biochem, 325:301-307) allowing measurement of monovalent affinities of whole IgG molecules against soluble antigen. […] The chip surface was regenerated in between cycles by stripping the captured antibody/antigen complexes with a 10 second injection of 100 mM H₃PO₄. […] The association rate constant (ka) and dissociation constant (kd) were evaluated globally from the generated sensograms with the BIA evaluation software 4.1 provided by the manufacturer.

t1/2 | Binder
78.1 min | B9
11.3 min | B10
22.9 min | B4
0.2 min | B5
31.1 min | B6
2.4 min | B7
3.6 min | B8
74.1 min | B11
4.1 min | B12

Each binder was assayed against T3, human EGFR expressed on cells (human, UniProt P00533 25-1210) (assay: cell ELISA on A431-NS cells (Fab ED50) against SPR KD).
T3 construct: whole, on cells; also called EGFR on A431-NS cells; full length Human EGFR on transfected CHO cells

fold difference of the monovalent functional affinity on cells against the value tested with BIAcore | Binder
15 fold | B1

The binders below were run against T1, EGFR-Fc (recombinant EGFR ECD-Fc …) (assay: SPR, Fab on immobilised EGFR ECD-Fc against IgG with soluble EGFR ECD).

fold higher affinity against immobilized antigen as compared to soluble receptor | Binder
10 fold | B2

These binders were tested against T4, Wild type full length EGFR purified from A431 cells (human, UniProt P00533 25-1210) (assay: ELISA: antibody titrated on coated full length EGFR, then biotinylated EGF (blocked ligand), streptavidin-HRP).
T4 construct: mature; purified from cells and coated on ELISA wells; also called purified full length EGFR; Sigma E3641
Experimental: The next morning wells were washed twice with PBS-T and blocked for one hour with 150 μl PBS-T-1% BSA at room temperature, followed by wash twice in PBS-T. Next 80 μl of serially diluted Anti-EGFR antibodies and control antibodies were added to wells and incubated 30 min at room temperature. […] Subsequently wells were washed five times with PBS-T, followed by incubation with 100 μl/well Streptavidin-HRP secondary reagent diluted 1:1000 in blocking buffer and incubation at room temperature for 30 min. Finally wells were washed five times with PBS-T and plates were developed by adding 100 μL/well TMB substrate and incubated for 60 min. After incubation the reaction was stopped by addition of 1 M H₂SO₄; 100 μl/well and plates were read at OD 450 nm.

IC50 (read off the curve) | Binder
~40 ng mAb/ml | B11
~20 ng mAb/ml | B12

Each binder was assayed against T4, Wild type full length EGFR purified … (assay: indirect ELISA, Fab on coated purified full length EGFR, anti-human Fab HRP).

EC50 (read off the curve) | Binder
~5 nM | B2
